pKd: −log10 of the molar value.
Columns and labels:
Assay in all cases: SPR
[1] = molecular target: Ghfp^M4–5 (R288H and D318G) (Neisseria gonorrhoeae strain FA1090)
[2] = molecular target: Ghfp^M4 (R288H) (Neisseria gonorrhoeae strain FA1090)
[3] = molecular target: factor H binding protein (fHbp) V3.45, recombinant, wild type (Neisseria meningitidis) (UniProt E6MV22)

“complement control protein (CCP) domains 6 and 7 of fH (fH6–7) (domain or fragment)” showed a pKd [1] of 8.70, a pKd [2] of 7.80 and a pKd [3] of 9.00.

Source: paper PMC3731240
